In one assay the target is CD33 on HL60 cells (UniProt P20138). Kind of assay: cell-based or functional assay.
The target in the next assay is soluble CD33 (UniProt P20138). Nature of the assay: cell-based or functional assay.

For “P67scFv/h.CD28/CD28Tm/FcRγ chimeric receptor (from UniProt P10747 118-134; P10747 135-161; P30273 45-86)”, the IL-2 production, cell surface-expressed antigen with respect to soluble antigen in the assay with CD33 on HL60 cells is 3 fold deficit.

“P67scFv/h.CD28/CD28Tm/TCRζ receptor (from UniProt P10747 118-134; P10747 135-161; P20963 31-142)” had an IL-2 production, cell surface-expressed antigen with respect to soluble antigen in the assay with CD33 on HL60 cells above 2 fold deficit.

For “P67scFv/h.CD28/Tm24/FcRγ chimeric receptor (from UniProt P10747 118-134; P30273 45-86)”, in the assay with CD33 on HL60 cells, the IL-2 production, cell surface-expressed antigen with respect to soluble antigen is 5 fold excess and the IL-2 production, change against the CD28 transmembrane receptor (fold increase) is above 5. Moreover, the IL-2 production, change against the CD28 transmembrane receptor (fold decrease) with soluble CD33 is below 3. Regarding “P67scFv/h.CD28/Tm24/TCRζ chimeric receptor (from UniProt P10747 118-134; P20963 31-142)”, the IL-2 production, cell surface-expressed antigen with respect to soluble antigen with CD33 on HL60 cells was found to be 2 fold excess.

Turning to “P67scFv/h.CD28/Tm31/FcRγ chimeric receptor (from UniProt P10747 118-134; P30273 45-86)”, in the assay with CD33 on HL60 cells, the IL-2 production, cell surface-expressed antigen with respect to soluble antigen was found to be 5 fold excess and the IL-2 production, change against the CD28 transmembrane receptor (fold increase) was above 5. In the assay with soluble CD33, this substance had an IL-2 production, change against the CD28 transmembrane receptor (fold decrease) below 3.
